# T1: mouse MIP-1α/CCL3 (mouse, UniProt P10855 24-92)
# T1 construct: also called muMIP-1α
# T1 sequence: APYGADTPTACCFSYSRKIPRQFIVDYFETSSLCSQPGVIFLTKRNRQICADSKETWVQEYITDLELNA
# T2: mouse MIP-1β/CCL4 (mouse, UniProt P14097 24-92)
# T2 construct: also called muMIP-1β
# T2 sequence: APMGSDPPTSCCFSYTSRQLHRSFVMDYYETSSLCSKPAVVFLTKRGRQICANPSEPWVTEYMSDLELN
# T3: human MIP-1α/CCL3 (human, UniProt P10147 24-92)
# T3 construct: also called Biotin-MIP-1α
# T3 sequence: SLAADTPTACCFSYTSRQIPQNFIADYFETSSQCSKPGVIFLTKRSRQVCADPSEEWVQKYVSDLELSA
# T4: human MIP-1β/CCL4 (human, UniProt Q8NHW4 24-92)
# T4 construct: also called Biotin-MIP-1β
# T4 chain: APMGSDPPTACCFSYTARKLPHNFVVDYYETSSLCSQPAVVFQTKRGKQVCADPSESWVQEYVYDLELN
# T5: human RANTES/CCL5 (human, UniProt P13501 24-91)
# T5 construct: also called Biotin-RANTES
# T5 sequence: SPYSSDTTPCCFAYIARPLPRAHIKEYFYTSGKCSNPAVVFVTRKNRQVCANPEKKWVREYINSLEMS
# T6: CTACK
# T6 construct: also called CTACK/CCL27; CCL27
# T6 chemokine: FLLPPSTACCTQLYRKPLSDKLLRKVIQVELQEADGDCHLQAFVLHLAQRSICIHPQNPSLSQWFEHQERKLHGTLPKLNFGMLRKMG
# T7: NAP-2
# T7 construct: also called NAP-2/CXCL7; CXCL7
# T7 chemokine: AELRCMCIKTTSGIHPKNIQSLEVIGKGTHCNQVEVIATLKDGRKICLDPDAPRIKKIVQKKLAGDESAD
# T8: PF4
# T8 construct: also called PF4/CXCL4; CXCL4
# T8 chemokine: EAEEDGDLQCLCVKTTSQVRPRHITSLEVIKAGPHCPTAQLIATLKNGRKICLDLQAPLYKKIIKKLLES
# T9: I-TAC
# T9 construct: also called I-TAC/CXCL11; CXCL11
# T9 chemokine: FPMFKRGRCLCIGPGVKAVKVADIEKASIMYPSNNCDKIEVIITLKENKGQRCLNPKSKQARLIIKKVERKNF
# T10: BRAK
# T10 construct: also called BRAK/CXCL14; CXCL14
# T10 chemokine: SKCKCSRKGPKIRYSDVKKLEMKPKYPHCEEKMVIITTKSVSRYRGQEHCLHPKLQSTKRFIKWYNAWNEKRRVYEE
# T11: XCL1
# T11 chemokine: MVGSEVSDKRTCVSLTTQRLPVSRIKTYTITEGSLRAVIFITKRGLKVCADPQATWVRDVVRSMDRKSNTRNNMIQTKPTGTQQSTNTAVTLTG
# Experiments:
# [1] = target: T1, mouse MIP-1α/CCL3; assay: MSD electrochemiluminescence, chemokine coated at 1 µg/mL
# [2] = target: T2, mouse MIP-1β/CCL4; assay: as above
# [3] = target: T12, mouse RANTES/CCL5 (mouse, UniProt P30882 24-91); assay: as above
# T12 construct: also called muRANTES
# T12 sequence (P30882 24-91 limits assumed): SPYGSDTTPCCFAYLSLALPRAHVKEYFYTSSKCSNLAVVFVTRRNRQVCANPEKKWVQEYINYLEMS
# [4] = target: T3, human MIP-1α/CCL3; assay: ELISA, hybridoma fusion-well supernatant on coated MIP-1α; background approx. 0.150
# [5] = target: T4, human MIP-1β/CCL4; assay: ELISA, hybridoma fusion-well supernatant on biotinylated chemokine on streptavidin plate; background approx. 0.150
# [6] = target: T5, human RANTES/CCL5; assay: as above
# [7] = target: T13, human MCP-1/CCL2 (human, UniProt P13500 24-99); assay: as above
# T13 construct: also called Biotin-MCP1
# T13 sequence (P13500 24-99 limits assumed): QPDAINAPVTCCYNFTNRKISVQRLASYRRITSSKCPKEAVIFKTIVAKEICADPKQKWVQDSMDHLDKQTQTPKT
# [8] = target: T14, IL-8; assay: MSD electrochemiluminescence assay; chemokine coated at 1 µg/mL, 18V4F at 3 µg/mL; background = BSA
# T14 construct: also called IL-8/CXCL8; CXCL8
# T14 sequence (chemokine, as listed by the source): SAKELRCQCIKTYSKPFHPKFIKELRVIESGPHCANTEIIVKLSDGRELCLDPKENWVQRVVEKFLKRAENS
# [9] = target: T15, SDF; assay: as above
# T15 construct: also called SDF-1/CXCL12; CXCL12
# T15 sequence (chemokine, as listed by the source): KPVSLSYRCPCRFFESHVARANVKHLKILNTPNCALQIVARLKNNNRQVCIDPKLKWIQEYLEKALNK
# [10] = target: T6, CTACK; assay: as above
# [11] = target: T16, Groα; assay: as above
# T16 construct: also called Gro-α/CXCL1; CXCL1
# T16 sequence (chemokine, as listed by the source): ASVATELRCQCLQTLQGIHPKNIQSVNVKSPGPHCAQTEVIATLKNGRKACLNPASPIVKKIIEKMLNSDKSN
# [12] = target: T17, Groβ; assay: as above
# T17 construct: also called Gro-β/CXCL2; CXCL2
# T17 sequence (chemokine, as listed by the source): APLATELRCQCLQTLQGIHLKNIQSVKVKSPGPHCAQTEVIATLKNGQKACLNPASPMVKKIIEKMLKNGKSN
# [13] = target: T18, Groγ; assay: as above
# T18 construct: also called Gro-γ/CXCL3; CXCL3
# T18 sequence (chemokine, as listed by the source): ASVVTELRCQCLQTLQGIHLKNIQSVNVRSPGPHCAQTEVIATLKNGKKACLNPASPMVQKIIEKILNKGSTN
# [14] = target: T19, ENA-78; assay: as above
# T19 construct: also called ENA-78/CXCL5; CXCL5
# T19 sequence (chemokine, as listed by the source): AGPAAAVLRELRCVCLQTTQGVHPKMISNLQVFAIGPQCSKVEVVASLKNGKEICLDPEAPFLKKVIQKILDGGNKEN
# [15] = target: T20, GCP2; assay: as above
# T20 construct: also called GCP-2/CXCL6; CXCL6
# T20 sequence (chemokine, as listed by the source): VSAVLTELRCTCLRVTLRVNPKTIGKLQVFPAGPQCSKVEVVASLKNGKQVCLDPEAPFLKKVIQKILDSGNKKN
# [16] = target: T7, NAP-2; assay: as above
# [17] = target: T8, PF4; assay: as above
# [18] = target: T9, I-TAC; assay: as above
# [19] = target: T10, BRAK; assay: as above
# [20] = target: T11, XCL1; assay: as above
binding result [1],binding result [2],binding result [3],ELISA signal [4],ELISA signal [5],ELISA signal [6],ELISA signal [7],binding result [8],binding result [9],binding result [10],binding result [11],binding result [12],binding result [13],binding result [14],binding result [15],binding result [16],binding result [17],binding result [18],binding result [19],binding result [20],Binder
no binding (tested: 3 µg/mL),no binding (tested: 3 µg/mL),no binding (tested: 3 µg/mL),1.47,2.68,0.178,0.246,,,,,,,,,,,,,,"monoclonal antibody 7D12A (antibody, V domains shown, also called MAb 7D12A) VH: EVHLQESGPSLVKPSQTLSLTCSVTGDSITNGYWNWIRKFPGNKLDYMGYISYDGNTYYNPSLKSRFSITRDTSKNQYYLQLNSVTTEDTATYYCSRGDYGTYVMDYWGQGTSVTVSS VL: NIVLTQSPVSLAVSLGQRATISCRASESVDSHGNSFMHWYQQKPGQPPKLLIYLASNLESGVPARFTGGGSGSDFTLTIDPVEADDVGTYYCQQNNEDPYTFGGGTKLEIK"
no binding (tested: 3 µg/mL),no binding (tested: 3 µg/mL),no binding (tested: 3 µg/mL),,,,,no binding (tested: 3 µg/mL),no binding (tested: 3 µg/mL),no binding (tested: 3 µg/mL),no binding (tested: 3 µg/mL),no binding (tested: 3 µg/mL),no binding (tested: 3 µg/mL),no binding (tested: 3 µg/mL),no binding (tested: 3 µg/mL),no binding (tested: 3 µg/mL),no binding (tested: 3 µg/mL),no binding (tested: 3 µg/mL),no binding (tested: 3 µg/mL),no binding (tested: 3 µg/mL),"monoclonal antibody 18V4F (antibody, V domains shown, also called MAb 18V4F) VH: QVQLKESGPGLVAPSQSLSITCTVSGFSLTGYGIHWVRQPPGKGLEWLGVIWPGGGTNYNSALMSRLSISKDNSKSQVFLKMNSLQTDDTAMYYCARGPLITTEVSMDYWGQGTSVTVSS VL: QAVVTQESALTTSPGETVTLTCRSNTGAVTTSNYANWVQEKPDHLFTGLIGGTNNRAPGVPARFSGSLIGDKAALTITGAQTEDEAIYFCALWYSNHWVFGGGTKLTVLG"

# — US20150166647A1 (VLST, published 2015)
